Patent US20260231968A1, “AN ECO-FRIENDLY, SUSTAINABLE FOOD PRESERVATIVE” (priority 2023, published 2026)

Tested on: Aspergillus flavus
Assay: Chickpea paste assay inoculated with A. flavus
Assay type: cell-based
Details: for fungal load count on YAG-agarose plates: 30° C, after 48 and 72 hours
Procedure: Sterilized and frozen chickpeas (100 g) were boiled for 15 minutes and ground using a blender. The ground chickpeas were treated with chloramphenicol (34 μg/μl) and tetracycline (12.5 μg/μl) to prevent microbial growth. The chickpeas were then inoculated with 500 spores/g of A. flavus and divided into groups of 7 g, and each group was treated with 7 ml of PBS×1 with different His-psoriasin concentrations to reach final concentrations of 0 μM, 50 μM, 100 μM, and 200 μM. The different groups were then divided into 1 g of treated and inoculated chickpeas in 6 well plates (1 g/well) and incubated in a humidified incubator at 30° C. Every day, 1 g of treated chickpeas from each group was diluted in PBS×1 and seeded on YAG-agarose plates to count colonies and calculate the fungi development through time.
For the visual evaluation of the treated/non-treated and inoculated/not-inoculated samples, the samples were prepared in the same way, but incubated at room temperatures and divided into groups of 3 g each.
Chickpeas were boiled and ground and then treated with a combination of chloramphenicol and tetracycline antibiotics (to eliminate bacterial growth) at final concentrations of 34 μg/μl and 12.5 μg/μl, respectively. Samples were divided into ‘inoculated with Aspergillus flavus’ and ‘non-inoculated’, and ‘treated’ and ‘non-treated’ with 180 μM His-psoriasin. All samples were placed in 20° C.
In a follow-up experiment, inoculated chickpea paste samples were treated with three different recombinant His-psoriasin concentrations, namely 50 μM, 100 μM, and 200 μM, and incubated at 30° C. Fungal load count was performed on YAG-agarose plates with antibiotics (chloramphenicol (34 μg/μl) and tetracycline (12.5 μg/μl)) to prevent bacterial growth after 48 and 72 hours.

B1: psoriasin: Recombinant human psoriasin (S100a7) containing a histidine tag, amino acid sequence SEQ ID NO: 11, expression vector pET-28a (protein, listed as Homo sapiens)
chain: MSNTQAERSIIGMIDMFHKYTRRDDKIEKPSLLTMMKENFPNFLSACDKKGTNYLADVFEKKDKNEDKKIDFSEFLSLLGDIATDYHKQSHGAAPCSGGSQ
signs of fungal growth in chickpea paste (visual) (180 μM, 20° C, after 10 days): did not show any signs of fungal growth | fungal load count on YAG-agarose plates (200 μM): No fungi had developed | fungal load count on YAG-agarose plates (lower concentrations (50 μM, 100 μM)): reduced growth was observed
